Results reported in PMC11251186, “Higher-order structure and proteoforms of co-occurring C4b-binding protein assemblies in human serum” (The EMBO Journal, 2024).
Values joined by “and” are separate entries in the source; they are usually repeats but may differ in a detail not shown here. Identical values can stand only once.

T1: C4b-binding protein beta chain (C4BPβ) (Homo sapiens (Human), UniProt P20851, N-glycans at N64, N71, N98, N117, N154)
T1 chain: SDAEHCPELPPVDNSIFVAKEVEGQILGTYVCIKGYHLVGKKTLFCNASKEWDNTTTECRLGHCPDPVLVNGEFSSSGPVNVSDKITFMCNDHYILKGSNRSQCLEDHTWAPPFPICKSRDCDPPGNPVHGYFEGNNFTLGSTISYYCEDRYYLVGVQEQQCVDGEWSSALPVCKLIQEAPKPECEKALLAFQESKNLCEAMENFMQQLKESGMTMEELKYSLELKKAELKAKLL

T2: vitamin K-dependent protein S (ProS) (human, UniProt P07225 42-676, N-glycans at N499, N509, N530)
T2 construct: vitamin K-dependent protein S (ProS), human serum protein; GLA domain, four EGF-like domains (E1-E4), two laminin G-like domains (LG1-2); without signal peptide and propeptide; source: purified from pooled plasma of more than 16 healthy donors together with C4BP (bought: Complement Technology, Inc); endogenous, pooled healthy donor serum (SEC LC-MS)
T2 sequence (looked up): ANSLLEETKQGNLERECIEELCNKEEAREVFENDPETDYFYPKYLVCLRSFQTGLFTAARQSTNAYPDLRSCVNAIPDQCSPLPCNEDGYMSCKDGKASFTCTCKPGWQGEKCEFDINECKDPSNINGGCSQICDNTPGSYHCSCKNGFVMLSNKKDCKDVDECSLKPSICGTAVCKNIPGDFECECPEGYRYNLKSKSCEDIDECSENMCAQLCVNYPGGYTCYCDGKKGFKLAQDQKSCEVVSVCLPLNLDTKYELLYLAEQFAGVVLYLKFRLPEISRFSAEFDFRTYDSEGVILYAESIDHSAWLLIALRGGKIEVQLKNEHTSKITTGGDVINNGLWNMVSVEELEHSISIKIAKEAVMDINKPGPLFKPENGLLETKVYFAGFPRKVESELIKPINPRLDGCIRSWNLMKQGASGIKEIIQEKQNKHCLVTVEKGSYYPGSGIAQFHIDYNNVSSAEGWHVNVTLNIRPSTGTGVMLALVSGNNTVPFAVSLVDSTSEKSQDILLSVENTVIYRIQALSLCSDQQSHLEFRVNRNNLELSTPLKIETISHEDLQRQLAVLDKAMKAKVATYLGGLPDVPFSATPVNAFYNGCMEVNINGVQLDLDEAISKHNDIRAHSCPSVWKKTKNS

B1: vitamin K-dependent protein S (ProS) (protein)
chain: T2 sequence (looked up)
modifications: N-glycans at N499, N509, N530
B2: C4b-binding protein alpha chain (C4BPα) (natural protein, human, UniProt P04003 49-597, looked up)
chain: NCGPPPTLSFAAPMDITLTETRFKTGTTLKYTCLPGYVRSHSTQTLTCNSDGEWVYNTFCIYKRCRHPGELRNGQVEIKTDLSFGSQIEFSCSEGFFLIGSTTSRCEVQDRGVGWSHPLPQCEIVKCKPPPDIRNGRHSGEENFYAYGFSVTYSCDPRFSLLGHASISCTVENETIGVWRPSPPTCEKITCRKPDVSHGEMVSGFGPIYNYKDTIVFKCQKGFVLRGSSVIHCDADSKWNPSPPACEPNSCINLPDIPHASWETYPRPTKEDVYVVGTVLRYRCHPGYKPTTDEPTTVICQKNLRWTPYQGCEALCCPEPKLNNGEITQHRKSRPANHCVYFYGDEISFSCHETSRFSAICQGDGTWSPRTPSCGDICNFPPKIAHGHYKQSSSYSFFKEEIIYECDKGYILVGQAKLSCSYSHWSAPAPQCKALCRKPELVNGRLSVDKDQYVEPENVTIQCDSGYGVVGPQSITCSGNRTWYPEVPKCEWETPEGCEQVLTGKRLMQCLPNPEDVKMALEVYKLSLEIEQLELQRDSARQSTLDKEL
modifications: N-glycans at N221, N506, N528
notes: eight CCP domains and the C-terminal oligomerization core; without the signal peptide; Disulfide-linked to the other C4BPα chains and to C4BPβ in the assembly; also called α chain; source: endogenous, pooled healthy donor serum (SEC LC-MS)
B3: C4b-binding protein beta chain (C4BPβ) (natural protein, human, UniProt P20851 18-252, looked up)
chain: T1 chain
modifications: N-glycans at N64, N71, N98, N117, N154
notes: three CCP domains; N-terminus S18 after the propeptide cleavage; Disulfide-linked to C4BPα in the assembly; also called β chain; source: endogenous, pooled healthy donor serum (SEC LC-MS)

Legend:
[1] = biological target: T1, C4b-binding protein beta chain (C4BPβ); test: native CDMS, mass photometry, XL-MS and HS-AFM of co-purified serum C4BP complex; C4BPβ present only disulfide-linked to C4BPα in the serum C4BP assembly (α7β1/α6β1), co-purified with ProS; the non-covalent complex dissociates at pH 2 or in urea
[2] = biological target: the molecule itself; test: cross-linking; C4BP 0.5 g/l in PBS pH 7.4, 1 mM DSS or 5 mM DMTMM, 30 min, room temperature; SDS-PAGE bands digested with trypsin, LC-MS/MS; cross-links kept if found in two of three replicates
[3] = biological target: B3; test: native MS; Orbitrap charge detection MS (CDMS) of native C4BP, 1 M ammonium acetate pH 7.4, ~1 μM; conditions: both partners purified
[4] = biological target: B2; test: cross-linking; C4BP 0.5 g/l in PBS pH 7.4, 1 mM DSS or 5 mM DMTMM, 30 min, room temperature; SDS-PAGE bands digested with trypsin, LC-MS/MS; cross-links kept if found in two of three replicates; conditions: both partners purified
[5] = biological target: T2, vitamin K-dependent protein S (ProS); test: as above; conditions: both partners purified

Binder: B1
binding result [1]: binds

Binder: B2
binding result [2]: binds
stoichiometry N [3]: 7 C4BPα chains per C4BPβ chain and 6 C4BPα chains per C4BPβ chain

Binder: B3
binding result [4]: binds
binding result [5]: binds
